Data as given in publication PMC5384775.

Legend:
[1] = molecular target: filamentous actin (F-actin) (UniProt P68135); test: co-sedimentation; His-tagged vinculin or mutants (1 uM) with 4 uM pre-polymerized F-actin and 10 uM GST-VBS(IpaA 610-633) as activator; 50 mM Tris-HCl pH 8.0, 0.2 mM MgCl2, 0.2 mM ATP, 1 mM DTT; 1 h at 24 C; 150,000 x g 1 h at 4 C; SDS-PAGE, CBB staining, ratio of precipitated to total vinculin by ImageJ
[2] = molecular target: filamentous actin (F-actin) (UniProt P68135); test: co-sedimentation; His-tagged vinculin or mutants (2 uM; WT also at 0.25 uM with 10 or 25 uM peptide) with 4 uM pre-polymerized F-actin and 25 uM VBS3(talin) peptide as activator; 50 mM Tris-HCl pH 8.0, 0.2 mM MgCl2, 0.2 mM ATP, 1 mM DTT; 1 h at 24 C; 150,000 x g 1 h at 4 C; SDS-PAGE, CBB staining, ratio of precipitated to total vinculin by ImageJ
[3] = molecular target: filamentous actin (F-actin), P68135; test: actin co-sedimentation assay; conditions: chain shown with the change

Chain of His-tagged WT vinculin (Q64727 whole entry): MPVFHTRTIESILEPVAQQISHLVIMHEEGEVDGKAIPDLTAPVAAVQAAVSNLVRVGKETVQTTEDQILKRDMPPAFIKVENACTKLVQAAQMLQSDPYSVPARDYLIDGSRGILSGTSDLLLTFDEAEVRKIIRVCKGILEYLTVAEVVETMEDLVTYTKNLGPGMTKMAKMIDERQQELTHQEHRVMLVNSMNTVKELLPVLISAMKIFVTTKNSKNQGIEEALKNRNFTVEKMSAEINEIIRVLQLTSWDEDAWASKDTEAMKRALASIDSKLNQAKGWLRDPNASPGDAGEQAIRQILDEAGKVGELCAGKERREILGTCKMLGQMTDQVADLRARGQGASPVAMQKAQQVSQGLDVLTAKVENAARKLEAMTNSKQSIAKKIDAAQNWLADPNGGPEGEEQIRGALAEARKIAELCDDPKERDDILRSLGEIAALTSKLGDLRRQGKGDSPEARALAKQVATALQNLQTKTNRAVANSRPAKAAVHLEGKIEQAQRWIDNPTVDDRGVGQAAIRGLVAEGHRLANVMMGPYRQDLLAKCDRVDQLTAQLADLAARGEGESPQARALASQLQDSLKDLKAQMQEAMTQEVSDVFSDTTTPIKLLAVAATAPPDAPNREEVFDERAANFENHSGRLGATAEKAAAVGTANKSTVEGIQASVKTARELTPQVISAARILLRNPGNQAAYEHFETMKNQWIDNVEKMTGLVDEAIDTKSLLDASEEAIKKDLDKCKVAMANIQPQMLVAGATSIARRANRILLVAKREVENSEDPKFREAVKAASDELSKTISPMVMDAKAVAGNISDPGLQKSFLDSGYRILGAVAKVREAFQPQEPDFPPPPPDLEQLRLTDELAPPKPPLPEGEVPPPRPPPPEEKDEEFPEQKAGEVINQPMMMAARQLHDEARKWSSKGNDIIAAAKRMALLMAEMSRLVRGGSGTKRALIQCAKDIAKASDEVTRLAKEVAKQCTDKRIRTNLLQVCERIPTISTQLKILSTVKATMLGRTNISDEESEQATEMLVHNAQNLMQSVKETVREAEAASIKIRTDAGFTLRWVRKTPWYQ

| percent of vinculin coprecipitated with F-actin [1] [%] | Molecule | further results |
| --- | --- | --- |
| 84 | His-tagged WT vinculin (from UniProt Q64727 1-1066) (natural protein) | percent of vinculin coprecipitated with F-actin [2]: 40% |
| 42 | His-tagged vinculin IA mutant (I997A) (from UniProt Q64727 1-1066) (natural protein) | – |
| 53 | His-tagged vinculin VA mutant (V1001A) (from UniProt Q64727 1-1066) (natural protein) | – |
| – | His-tagged WT vinculin, Q64727 D974A; K975A; R976A; R978A (protein) MPVFHTRTIESILEPVAQQISHLVIMHEEGEVDGKAIPDLTAPVAAVQAAVSNLVRVGKETVQTTEDQILKRDMPPAFIKVENACTKLVQAAQMLQSDPYSVPARDYLIDGSRGILSGTSDLLLTFDEAEVRKIIRVCKGILEYLTVAEVVETMEDLVTYTKNLGPGMTKMAKMIDERQQELTHQEHRVMLVNSMNTVKELLPVLISAMKIFVTTKNSKNQGIEEALKNRNFTVEKMSAEINEIIRVLQLTSWDEDAWASKDTEAMKRALASIDSKLNQAKGWLRDPNASPGDAGEQAIRQILDEAGKVGELCAGKERREILGTCKMLGQMTDQVADLRARGQGASPVAMQKAQQVSQGLDVLTAKVENAARKLEAMTNSKQSIAKKIDAAQNWLADPNGGPEGEEQIRGALAEARKIAELCDDPKERDDILRSLGEIAALTSKLGDLRRQGKGDSPEARALAKQVATALQNLQTKTNRAVANSRPAKAAVHLEGKIEQAQRWIDNPTVDDRGVGQAAIRGLVAEGHRLANVMMGPYRQDLLAKCDRVDQLTAQLADLAARGEGESPQARALASQLQDSLKDLKAQMQEAMTQEVSDVFSDTTTPIKLLAVAATAPPDAPNREEVFDERAANFENHSGRLGATAEKAAAVGTANKSTVEGIQASVKTARELTPQVISAARILLRNPGNQAAYEHFETMKNQWIDNVEKMTGLVDEAIDTKSLLDASEEAIKKDLDKCKVAMANIQPQMLVAGATSIARRANRILLVAKREVENSEDPKFREAVKAASDELSKTISPMVMDAKAVAGNISDPGLQKSFLDSGYRILGAVAKVREAFQPQEPDFPPPPPDLEQLRLTDELAPPKPPLPEGEVPPPRPPPPEEKDEEFPEQKAGEVINQPMMMAARQLHDEARKWSSKGNDIIAAAKRMALLMAEMSRLVRGGSGTKRALIQCAKDIAKASDEVTRLAKEVAKQCTAAAIATNLLQVCERIPTISTQLKILSTVKATMLGRTNISDEESEQATEMLVHNAQNLMQSVKETVREAEAASIKIRTDAGFTLRWVRKTPWYQ | response ([3]; 2 μM His-tagged vinculin, 25 μM VBS3(talin), parent: est. 41, read off a plot): 59% |
| – | His-tagged WT vinculin, Q64727 I997A; V1001A (protein) MPVFHTRTIESILEPVAQQISHLVIMHEEGEVDGKAIPDLTAPVAAVQAAVSNLVRVGKETVQTTEDQILKRDMPPAFIKVENACTKLVQAAQMLQSDPYSVPARDYLIDGSRGILSGTSDLLLTFDEAEVRKIIRVCKGILEYLTVAEVVETMEDLVTYTKNLGPGMTKMAKMIDERQQELTHQEHRVMLVNSMNTVKELLPVLISAMKIFVTTKNSKNQGIEEALKNRNFTVEKMSAEINEIIRVLQLTSWDEDAWASKDTEAMKRALASIDSKLNQAKGWLRDPNASPGDAGEQAIRQILDEAGKVGELCAGKERREILGTCKMLGQMTDQVADLRARGQGASPVAMQKAQQVSQGLDVLTAKVENAARKLEAMTNSKQSIAKKIDAAQNWLADPNGGPEGEEQIRGALAEARKIAELCDDPKERDDILRSLGEIAALTSKLGDLRRQGKGDSPEARALAKQVATALQNLQTKTNRAVANSRPAKAAVHLEGKIEQAQRWIDNPTVDDRGVGQAAIRGLVAEGHRLANVMMGPYRQDLLAKCDRVDQLTAQLADLAARGEGESPQARALASQLQDSLKDLKAQMQEAMTQEVSDVFSDTTTPIKLLAVAATAPPDAPNREEVFDERAANFENHSGRLGATAEKAAAVGTANKSTVEGIQASVKTARELTPQVISAARILLRNPGNQAAYEHFETMKNQWIDNVEKMTGLVDEAIDTKSLLDASEEAIKKDLDKCKVAMANIQPQMLVAGATSIARRANRILLVAKREVENSEDPKFREAVKAASDELSKTISPMVMDAKAVAGNISDPGLQKSFLDSGYRILGAVAKVREAFQPQEPDFPPPPPDLEQLRLTDELAPPKPPLPEGEVPPPRPPPPEEKDEEFPEQKAGEVINQPMMMAARQLHDEARKWSSKGNDIIAAAKRMALLMAEMSRLVRGGSGTKRALIQCAKDIAKASDEVTRLAKEVAKQCTDKRIRTNLLQVCERIPTISTQLKALSTAKATMLGRTNISDEESEQATEMLVHNAQNLMQSVKETVREAEAASIKIRTDAGFTLRWVRKTPWYQ | response ([3]; 1 μM His-tagged vinculin, 10 μM GST-VBS(IpaA), parent: est. 84, read off a plot): 43% |
